Source: patent publication US7504561B2, “GDC-1 genes conferring herbicide resistance” (Athenix Corporation, priority 2003, dated 2009)

Experiment: Standard pyruvate decarboxylase assay (coupled reaction with alcohol dehydrogenase, absorbance at 340 nm)
Type: biochemical
Conditions: 100 ng of GDC-1 protein
Method: 100 ng of GDC-1 protein was tested for activity in a standard pyruvate decarboxylase assay (Gounaris et al. (1971) J. of Biol. Chem. 246:1302-1309). This assay is a coupled reaction, wherein the first step the pyruvate decarboxylase (PDC) converts pyruvate to acetaldehyde and CO2. The acetaldehyde produced in this reaction is a substrate for alcohol dehydrogenase, which converts acetaldehyde and β-NADH to ethanol and β-NAD. Thus, PDC activity is detected by virtue of utilization of β-NADH as decrease in absorbance at 340 nm in a spectrophotometer. GDC-1 as well as a control enzyme (pyruvate decarboxylase, Sigma) were tested in this assay.

B1: GDC-1: glyphosate resistance-conferring decarboxylase from fungal strain ATX6394, SEQ ID NO:19; purified as 6×His-tagged protein (protein)
chain: MASINIRVQNLEQPMDVAEYLFRRLHEIGIRSIHGLPGDYNPLALDYLPSCGLRWVGSVNELNAAYAADGYARVKQMGALITTFGVGELSAINGVAGAFSEHVPVVHIVGCPSTASQRNGMLLHHTLGNGDFNIFANMSAQISCEVAKLTNPAEIATQIDHALRVCFIRSRPVYIMLPTDMVQAKVEGARLKEPIDLSEPPNDPEKEAYVVDVVLKYLRAAKNPVILVDACAIRHRVLDEVHDLIEKTNLPVFVTPMGKGAVNEEHPTYGGVYAGDGSHPPQVKDMVESSDLILTIGALKSDFNTAGFSYRTSQLNTIDLHSDHCIVKYSTYPGVQMRGVLRQVIKQLDASEINAQPAPVVENEVAKNRDNSPVITQAFFWPRVGEFLKKNDIVITETGTANFGIWDTKFPSGVTALSQVLWGSIGWSVGACQGAVLAAADDNSDRRTILFVGDGSFQLTAQELSTMIRLKLKPIIFVICNDGFTIERFIHGMEAEYNDIANWDFKALVDVFGGSKTAKKFAVKTKDELDSLLTDPTFNAAECLQFVELYMPKEDAPRALIMTAEASARNNAKTE
modifications: 6xHis tag; Fungal isolate from soil sample
notes: purified as 6×His-tagged protein
  Pyruvate decarboxylase activity: showed activity as a pyruvate decarboxylase
